According to publication PMC6336799, “Novel non-phosphorylative pathway of pentose metabolism from bacteria” (Scientific Reports, 2019):

Tests used:
Type in all cases: biochemical, Herbaspirillum huttiense
[1] = substrate: O=C(O)C(=O)C[C@H](O)CO; experiment: coupled spectrophotometric assay (alpha-KGSA dehydrogenase); conditions: 50 mM HEPES-NaOH pH 7.2, 1.5 mM NAD+ for coupling enzyme, 1 mM MgCl2 if necessary
[2] = substrate: O=C(O)C(=O)C[C@@H](O)CO; experiment: as above; conditions: 50 mM HEPES-NaOH pH 7.2, 1.5 mM NAD+ for coupling enzyme, 1 mM MgCl2 if necessary
[3] = substrate: O=C(O)C(=O)C[C@H](O)CO; experiment: spectrophotometric NADH formation; conditions: NAD+ as coenzyme, 50 mM Tris-HCl pH 9.0
[4] = substrate: C[C@H](O)[C@@H](O)CC(=O)C(=O)O; experiment: spectrophotometric NADH formation; conditions: NAD+ as coenzyme, 50 mM Tris-HCl pH 9.0
purified protein [5] = substrate: O=C(O)[C@@H](O)[C@H](O)[C@H](O)[C@H](O)CO; experiment: purified protein; conditions: 50 mM HEPES-NaOH pH 7.2, 1.5 mM NAD+ for coupling enzyme
purified protein [6] = substrate: O=C(O)[C@@H](O)[C@H](O)[C@H](O)CO; experiment: purified protein; conditions: 50 mM HEPES-NaOH pH 7.2, 1.5 mM NAD+ for coupling enzyme

B1: C785_RS13710 (KDP dehydratase) (Herbaspirillum huttiense subsp. lycopersici) (protein)
chain: MRLIQYRDLHGQRRVGIVNGASIQVLGEVDTMRELGLLAIERHTGLERLAQLLNTDRSEDYAAILAEGRILAPLDHPDPAHCRVSGAGTTHLGSATTRDKMHRRIEGDELDKTDTQLMIEWGIAGGRPAPGTVGVQPEWFYKGDGHCIVAPGQPLPRPDFALDGGEEPEIVGLYLIDDAGCPRRLGFAIGNEFSDHVMERRNYLYQGHSKLRHCAFGPELLVGLPPAHLVGMTRIRRRGRVIWEQEFLTGPDNMCHSIENLEYHTFKYAHLLHAGDVHAHFMGAANLSFAYSVRTEDGDSIEISIPDFGAPLVNGIQHVQSNLRPGGVRQL
notes: full length, N-terminal (His)6-tag, expressed in Pseudomonas putida KT2442-oxyR1 (pUCP/C785_RS13710), Ni-NTA
Q: What does the source list for B1?
A: Km [1]: 1910 ± 200 µM; kcat [1]: 0.18 ± 0.005 s⁻¹; Km [2]: 533 ± 160 µM; kcat [2]: 0.202 ± 0.035 s⁻¹

B2: C785_RS13675 (D-KDP/L-KDF 4-dehydrogenase) (Herbaspirillum huttiense subsp. putei IAM 15032) (protein)
chain: MSASTGRLAGKTVLITAAAQGIGRASTELFAREGARVIATDISKTHLEELASIAGVETHLLDVTDDDAIKALVAKVGTVDVLFNCAGYVAAGNILECDDKAWDFSFNLNAKAMFHTIRAVLPGMLAKKAGSIVNIASAASSVKGVANRFAYGASKAAVVGLTKSVAADFVSQGIRCNAICPGTIESPSLNQRISTQAKETGKSEDEVRAAFVARQPMGRIGKAEEVAALALYLASDESNFTTGSIHMIDGGWSN
notes: full length, N-terminal (His)6-tag (pQE-80L), expressed in E. coli DH5alpha, Ni-NTA
Q: What does the source list for B2?
A: Km [3]: 1120 ± 210 µM; kcat [3]: 27.17 ± 3.67 s⁻¹; Km [4]: 169 ± 3 µM; kcat [4]: 32.17 ± 0.483 s⁻¹

B3: C785_RS13685 (D-arabinonate dehydratase) (Herbaspirillum huttiense subsp. lycopersici) (protein)
chain: MKANSPIIRLNPVDDVVIARQQLISGTVLQDEGGLKVQGLIPAGHKMATRAISAGEPVKRYGQIIGTASQDIAPGQHVHTHNLAMAEFSREHHFGADVKPVDFVAEPATFMGIVRPDGRVATRNYIGVLTSVNCSATAARAIADYFRRDIHPEVLADYPNIDGVVALTHGQGCATDSQGEPLQILRRTLAGYATHPNFAAVLVVGLGCETNQISGLMESHNLKEGEYFHTFTIQGTGGTAKTVALGIEKIKKMLPKANDIKREPVSAKHLTLGLQCGGSDGYSGITANPALGAAVDLLVRHGGTAILSETPEIYGAEHLLTRRAVSPEVGEKLLARIAWWEEYCAKNDAEMNNNPSAGNKAGGLTTILEKSLGAVAKGGTTNLVDVYKYAETVTARGFVFMDTPGYDPISATGQVAGGANMICFTTGRGSAYGCAPAPSLKLATNTALWQRQEEDMDINCGEIADSNVTPQEVGERFFQMILDTASGKKTKSELHGYGQDEFVPWHIGVYT
notes: full length, N-terminal (His)6-tag (pQE-80L), expressed in E. coli DH5alpha, Ni-NTA; iron protein stored with Fe2+ and DTT
Q: B3 was tested. Which Km (purified protein [5]) did it give?
A: Its Km is 5910 ± 90 µM.

Q: And the kcat (purified protein [5])?
A: The kcat was 0.0393 ± 0.0005 s⁻¹.

Q: What about the Km (purified protein [6]) of the same protein?
A: The Km was 202 ± 3 µM.

Q: What about the kcat (purified protein [6]) of the same protein?
A: The kcat was 9.03 ± 0.067 s⁻¹.
